The results in this text go back to US20020099172A1.

In this experiment the target is Xwnt-8 (Xenopus) (UniProt P28026). The experiment in a line: cell-based or functional assay.
Chain of UniProt P28026 (P28026 23-358 limits assumed): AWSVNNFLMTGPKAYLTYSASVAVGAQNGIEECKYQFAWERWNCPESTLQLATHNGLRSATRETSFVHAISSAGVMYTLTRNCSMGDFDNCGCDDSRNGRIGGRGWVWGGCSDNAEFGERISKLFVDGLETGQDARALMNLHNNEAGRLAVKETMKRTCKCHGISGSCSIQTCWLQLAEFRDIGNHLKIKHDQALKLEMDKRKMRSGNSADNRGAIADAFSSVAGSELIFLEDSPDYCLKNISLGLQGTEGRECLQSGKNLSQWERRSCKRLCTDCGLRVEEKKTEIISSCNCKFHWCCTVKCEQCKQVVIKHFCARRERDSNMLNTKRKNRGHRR

In turn, “frzb-1 (Xenopus, expressed from injected mRNA)” yielded an embryos with secondary axes after injection of frzb-1 mRNA (animal blastomeres) and Xwnt-8 mRNA (vegetal-ventral blastomere); Xwnt-8 alone gave complete secondary axes in 67% of the embryos (n=53) of 14%.
